The target of experiment [1] is T1, human IGF2^1-67 (mature insulin-like growth factor 2) (human, UniProt P01344 25-91, biotinylated (site not stated) where immobilised on the chip (Tables 1-4)).
T1 construct: mature; also called mature IGF2; biotinylated IGF2
The experiment in a line: SPR steady state, biotin-IGF2 on chip, pH 7.4. A digest of the protocol: (§1)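 Biacore SPR at 25 °C in HBS-EP pH 7.4 or MES-EP pH 6.5, flow 40 μL/min; ~50 RU biotin-IGF2:biotin-ubiquitin (1:8) on streptavidin chip, or Fc-domain 11 captured via anti-human IgG. Kinetics fitted to 1:1 model; steady-state affinity from response averaged 5 s before injection end.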

Experiment [2] addresses T1, human IGF2^1-67 (mature insulin-like …). The experiment in a line: SPR kinetic, biotin-IGF2 on chip. As to the method:
(§2) Final kinetic analysis of mutants by SPR was conducted using a Biacore T200 biosensor at 25° C. in either HBS-EP (10 mM HEPES pH 7.4, 150 mM NaCl, 3 mM EDTA, and 0.005% (v/v) surfactant P20) or MES-EP (20 mM MES pH 6.5, 150 mM NaCl, 3 mM EDTA, and 0.005% (v/v) surfactant P20) at a flow-rate of 40 μL min⁻¹. […] For the analysis of the Fc-domain 11^AB5 interaction, approximately 50 RU of a biotinylated IGF2:biotinylated ubiquitin mixture (1:8 proportion) was immobilized on the CM5-streptavidin chip. This interaction was also analysed by immobilizing the Fc-domain 11^AB5 and Fc-domain 11^AB5-RHH (or Fc-domain 11^I1572A as control) by Human Antibody Capture (monoclonal mouse anti-human IgG antibody immobilised on a CM5 chip by amine coupling, GE Healthcare) with and without human IgG1 Fc fragment (Bethyl Laboratories, UK) in the control flow cell. […] T200 BiaEvaluation software (GE Healthcare) was used to fit the resulting curves according to a 1:1 binding model. Steady state affinities were determined using the kinetic data, taking the response average at 5 seconds before injection end and for 5 seconds average. Thermodynamic data was performed across the temperature range of 10° C. to 30° C., van't Hoff and Erying plots generated and ΔH, −TΔS and ΔG values determined as previously described.
(In general: Surface plasmon resonance follows binding to a sensor surface in real time, without labels.)

Experiment [3] has the same target. The experiment in a line: SPR kinetic, biotin-IGF2 on chip, pH 7.4. A digest of the protocol: as §1
The target is the same in experiment [4]. As to the kind of experiment: SPR (Biacore T200, 25 °C, HBS-EP pH 7.4); ΔΔG° = RT ln(KD mutant / KD domain 11^AB3); box AB+CD. How it is done: (§3) Boxes show the change in the binding free energy contribution, ΔΔGº, for the indicated mutants. The loop/s that contains the mutation/s is indicated in each box. The ΔΔGº values were calculated as ΔΔGº=ΔGº domain 11^mutant−ΔGº domain 11^AB3=RTln(KD domain 11^mutant/KD domain 11^AB3). Additive and non-additive contributions of single point mutations are shown when calculated with a box solid line and dashed line, respectively.
(§4) Final kinetic analysis of mutants by SPR was conducted using a Biacore T200 biosensor at 25° C. in either HBS-EP (10 mM HEPES pH 7.4, 150 mM NaCl, 3 mM EDTA, and 0.005% (v/v) surfactant P20) or MES-EP (20 mM MES pH 6.5, 150 mM NaCl, 3 mM EDTA, and 0.005% (v/v) surfactant P20) at a flow-rate of 40 μL min⁻¹. […] This interaction was also analysed by immobilizing the Fc-domain 11^AB5 and Fc-domain 11^AB5-RHH (or Fc-domain 11^I1572A as control) by Human Antibody Capture (monoclonal mouse anti-human IgG antibody immobilised on a CM5 chip by amine coupling, GE Healthcare) with and without human IgG1 Fc fragment (Bethyl Laboratories, UK) in the control flow cell. […] Steady state affinities were determined using the kinetic data, taking the response average at 5 seconds before injection end and for 5 seconds average.

Experiment [5] shares this target. As to the kind of experiment: SPR steady state, biotin-IGF2 on chip. As to the method:
as §2

The target is the same in experiment [6]. As to the kind of experiment: SPR kinetic, biotin-IGF2 on chip, pH 6.5. As to the method:
Measurements were carried out at 25° C. in MES-EP buffer, 20 mM MES pH 6.5, 150 mM NaCl, 3 mM EDTA, and 0.005% (v/v) surfactant P20). Data for KD expressed as mean of each experiment, and means of kon and koff are shown.
as §2

For experiment [7] the target is unchanged. As to the kind of experiment: SPR (Biacore T200, 25 °C, HBS-EP pH 7.4); ΔΔG° = RT ln(KD mutant / KD domain 11^AB3); box AB+CD+FG, dashed outline. How it is done: as §3, §4
Experiment [8] shares this target. As to the kind of experiment: SPR (Biacore T200, 25 °C, HBS-EP pH 7.4); ΔΔG° = RT ln(KD mutant / KD domain 11^AB3); box AB+CD+FG+FG, solid outline. How it is done:
as §3, §4

For experiment [9] the target is unchanged. As to the kind of experiment: SPR, biotin-IGF2 on chip, lower pH (6.5); reference domain 11^WT. As to the method: as §2
The target is the same in experiment [10]. The experiment in a line: SPR (Biacore T200, 25 °C, HBS-EP pH 7.4); ΔΔG° = RT ln(KD mutant / KD domain 11^AB3); box AB+CD+FG+FG. As to the method:
as §3, §4

The target is the same in experiment [11]. As to the kind of experiment: SPR (Biacore T200, 25 °C, HBS-EP pH 7.4); ΔΔG° = RT ln(KD mutant / KD domain 11^AB3); box AB+CD+FG+FG, dashed outline. As to the method: as §3, §4
Experiment [12] shares this target. The experiment in a line: SPR (Biacore T200, 25 °C, HBS-EP pH 7.4); ΔΔG° = RT ln(KD mutant / KD domain 11^AB3); box AB+FG+FG, solid outline. How it is done:
as §3, §4

T1 sequence (P01344 25-91): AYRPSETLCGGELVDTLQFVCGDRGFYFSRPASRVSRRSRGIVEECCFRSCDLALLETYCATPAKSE

B1: domain 11^AB3 Q1569R (receptor)
chain: MKSNEHDDCQVTNPSTGHLFDLSSLSGRAGFTAAYSKSGVVYMSICGENENCPPGVGACFGRTRISVGKANKRLRYVDQVLQLVYKDGSPCPSKSGLSYKSVISFVCRPEAGPTNRPMLISLDKQTCTLFFSWHTPLACEQATECSV
notes: See m5; also called AB3 + 73E (CD-Q1569R)
For B1, the Kd in [1] came out at 3.15 nM; in [2] it was 2.3 nM; in experiment [3], 2.3 nM; in experiment [5], 3.15 nM. For the same molecule, the koff in [2] and in experiment [3] was 0.031 s⁻¹ in each case. The kon in [2] and in [3] was 1.36e+07 M⁻¹ s⁻¹ each time. The molecule also came in with a ΔΔG in experiment [4] of -1.12 kcal/mol.

B2: domain 11^AB3 Q1569R P1597H (receptor)
chain: MKSNEHDDCQVTNPSTGHLFDLSSLSGRAGFTAAYSKSGVVYMSICGENENCPPGVGACFGRTRISVGKANKRLRYVDQVLQLVYKDGSHCPSKSGLSYKSVISFVCRPEAGPTNRPMLISLDKQTCTLFFSWHTPLACEQATECSV
notes: See m5
B2: the Kd in experiment [1] amounted to 1.73 nM; in [3], 0.9 nM; in [6] it was 0.47 nM. In addition, the koff in [3] turned out to be 0.0153 s⁻¹; in experiment [6] it was 0.0091 s⁻¹. In addition, the kon worked out at 1.89e+07 M⁻¹ s⁻¹ in experiment [3] and 1.99e+07 M⁻¹ s⁻¹ in [6]. Besides, the ΔΔG in experiment [7] is -1.68 kcal/mol.

B3: domain 11^AB5 Q1569R P1597H S1602H (receptor)
chain: MKSNEHDDCQVTNPSTGHLFDLSSLSGRAGFTAAYAKGWGVYMSICGENENCPPGVGACFGRTRISVGKANKRLRYVDQVLQLVYKDGSHCPSKHGLSYKSVISFVCRPEAGPTNRPMLISLDKQTCTLFFSWHTPLACEQATECSV
notes: See m5
In the case of B3, the Kd in [1] was determined as 2 nM; in [3], 0.65 nM; in [6] it was 0.71 nM. Also, the koff amounted to 0.0038 s⁻¹ in experiment [3] and 0.003 s⁻¹ in experiment [6]. The kon was found to be 5.9e+06 M⁻¹ s⁻¹ in experiment [3] and 4.41e+06 M⁻¹ s⁻¹ in [6]. In experiment [8], the ΔΔG is -1.87 kcal/mol.

B4: domain 11^AB3 Q1569R P1597H S1602H (receptor)
chain: MKSNEHDDCQVTNPSTGHLFDLSSLSGRAGFTAAYSKSGVVYMSICGENENCPPGVGACFGRTRISVGKANKRLRYVDQVLQLVYKDGSHCPSKHGLSYKSVISFVCRPEAGPTNRPMLISLDKQTCTLFFSWHTPLACEQATECSV
notes: See m5
As to B4, the Kd in [1] was 1.53 nM; in experiment [3], 0.74 nM; in [6] it was 0.4 nM. Besides, the koff in experiment [3] turned out to be 0.01 s⁻¹; in experiment [6], 0.0064 s⁻¹. Further, the on-rate (kon) in [3] was determined as 1.41e+07 M⁻¹ s⁻¹; in experiment [6], 1.61e+07 M⁻¹ s⁻¹. In addition, in experiment [9], the “fold improved overall affinity compared to domain 11^WT” value was 100 fold. This molecule registered a ΔΔG in [10] of -1.79 kcal/mol.

B5: domain 11^AB5 Q1569R P1597H G1603K (receptor)
chain: MKSNEHDDCQVTNPSTGHLFDLSSLSGRAGFTAAYAKGWGVYMSICGENENCPPGVGACFGRTRISVGKANKRLRYVDQVLQLVYKDGSHCPSKSKLSYKSVISFVCRPEAGPTNRPMLISLDKQTCTLFFSWHTPLACEQATECSV
notes: See m5
B5: the Kd in [1] worked out at 2.01 nM. Moreover, the ΔΔG in experiment [11] was -1.7 kcal/mol. Also, in experiment [3], the Kd amounted to 0.87 nM, the off-rate constant (koff) is 0.0058 s⁻¹ and the kon was 6.67e+06 M⁻¹ s⁻¹. In [6], this molecule yielded a Kd of 0.69 nM, a koff of 0.0051 s⁻¹ and an on-rate constant (kon) of 7.54e+06 M⁻¹ s⁻¹.

B6: domain 11^AB5 P1597H S1602H (receptor)
chain: MKSNEHDDCQVTNPSTGHLFDLSSLSGRAGFTAAYAKGWGVYMSICGENENCPPGVGACFGQTRISVGKANKRLRYVDQVLQLVYKDGSHCPSKHGLSYKSVISFVCRPEAGPTNRPMLISLDKQTCTLFFSWHTPLACEQATECSV
notes: See m5
In turn, B6 showed a dissociation constant (Kd) in experiment [1] of 2.93 nM. In experiment [12], this molecule showed a ΔΔG of -1.52 kcal/mol. In experiment [3], this molecule returned a Kd of 1.17 nM, a koff of 0.0046 s⁻¹ and a kon of 3.5e+06 M⁻¹ s⁻¹. In [6], this molecule registered a Kd of 0.62 nM, a koff of 0.0029 s⁻¹ and a kon of 5.32e+06 M⁻¹ s⁻¹.

B7: domain 11^AB5 Q1569R (receptor)
chain: MKSNEHDDCQVTNPSTGHLFDLSSLSGRAGFTAAYAKGWGVYMSICGENENCPPGVGACFGRTRISVGKANKRLRYVDQVLQLVYKDGSPCPSKSGLSYKSVISFVCRPEAGPTNRPMLISLDKQTCTLFFSWHTPLACEQATECSV
notes: See m5
Take B7: binding in [1] was put at a Kd of 3.22 nM. In experiment [3], the Kd amounted to 2.24 nM, the koff was 0.0175 s⁻¹ and the kon was 8.04e+06 M⁻¹ s⁻¹. This molecule registered a ΔΔG in experiment [4] of -1.13 kcal/mol.

B8: domain 11^AB5 Q1569R P1597H (receptor)
chain: MKSNEHDDCQVTNPSTGHLFDLSSLSGRAGFTAAYAKGWGVYMSICGENENCPPGVGACFGRTRISVGKANKRLRYVDQVLQLVYKDGSHCPSKSGLSYKSVISFVCRPEAGPTNRPMLISLDKQTCTLFFSWHTPLACEQATECSV
notes: See m5
In the case of B8, the Kd in experiment [1] turned out to be 5.4 nM. In experiment [3], this molecule had a Kd of 1.95 nM, a koff of 0.0058 s⁻¹ and a kon of 3.2e+06 M⁻¹ s⁻¹. In addition, in [6], the affinity, expressed as Kd, was 1.46 nM; the koff worked out at 0.0034 s⁻¹; the kon came to 2.37e+06 M⁻¹ s⁻¹. In addition, the ΔΔG in experiment [7] is -1.22 kcal/mol.

In general, Kd refers to the equilibrium constant for the complex coming apart. The term koff denotes a measure of how fast the partners let go of each other. A higher koff goes with fast dissociation. As a reminder, the kon is the rate constant with which the complex forms. Low readings indicate slow association, high ones fast association.

Values taken from patent US20180237497A1 (CANCER RESEARCH TECHNOLOGY, published 2018).
